# Experimental data reported in doi:10.1101/404996 (bioRxiv, 2018).
# B1: HIV-1 protease Flap+(I54) (L10I, G48V, V82A on the pWT backbone) (enzyme)
# chain: not shown
# B2: HIV-1 protease Flap+(I54A) (L10I, G48V, I54A, V82A on the pWT backbone) (enzyme)
# chain: not shown
# B3: HIV-1 protease Flap+(I54V) (L10I, G48V, I54V, V82A on the pWT backbone) (enzyme)
# chain: not shown
# B4: HIV-1 protease, pseudo wild type (pWT) (enzyme)
# chain: not shown
# Molecular target: the molecule itself
# Test: other fluorescence titration
row,Protein,Kd
1,B1,< 250 nM
2,B2,< 250 nM
3,B3,< 250 nM
4,B4,< 250 nM
